Experimental findings from patent US20260217833A1 (APTEVO RESEARCH AND DEVELOPMENT, published 2026) are described below.

For one assay, the target named is T1, Human PD-L1 full-length (human, UniProt Q9NZQ7 19-290).
T1 construct: also called PDL01021; CHOK1SV/huPDL1
The experiment in a line: MSD cell binding, CHOK1SV/human PD-L1 cells; x axis without printed unit.

The next assay concerns the target T2, Cyno PD-L1 full-length (cynomolgus, UniProt Q9NZQ7 19-290 (human entry)).
T2 construct: also called PDL01022; CHOK1SV/cynoPDL1
The experiment in a line: MSD cell binding, CHOK1SV/cynomolgus PD-L1 cells; x axis without printed unit.

For another assay, the target named is T3, human CD40 full-length (human, UniProt P25942 21-277).
T3 construct: Also used for CD40 of Daudi cells, of CD40-expressing HEK293 cells and of the BPS CD40/NFkB HEK293 reporter cells where the row says so; also called CD4001012; CHOK1SV/CD40
The experiment in a line: flow cytometry, CHOK1SV/human CD40 cells. Background: In flow cytometry, cells or beads pass a laser one at a time.

The target of another assay is T4, Cynomolgus CHOK1SV/CD40.
T4 construct: also called Cyno CD40 full-length; CD4001013
T4 receptor chain: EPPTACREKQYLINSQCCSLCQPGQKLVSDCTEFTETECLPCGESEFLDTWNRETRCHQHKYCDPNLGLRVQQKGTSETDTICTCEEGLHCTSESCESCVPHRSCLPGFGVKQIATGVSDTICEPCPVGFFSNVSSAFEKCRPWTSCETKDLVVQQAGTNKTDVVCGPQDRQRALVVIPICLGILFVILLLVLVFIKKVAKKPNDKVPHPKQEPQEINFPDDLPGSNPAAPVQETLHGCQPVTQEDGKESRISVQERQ
The experiment in a line: flow cytometry, CHOK1SV/cynomolgus CD40 cells.

T2 sequence (Q9NZQ7 other isoform, or with tags, fused parts or gaps): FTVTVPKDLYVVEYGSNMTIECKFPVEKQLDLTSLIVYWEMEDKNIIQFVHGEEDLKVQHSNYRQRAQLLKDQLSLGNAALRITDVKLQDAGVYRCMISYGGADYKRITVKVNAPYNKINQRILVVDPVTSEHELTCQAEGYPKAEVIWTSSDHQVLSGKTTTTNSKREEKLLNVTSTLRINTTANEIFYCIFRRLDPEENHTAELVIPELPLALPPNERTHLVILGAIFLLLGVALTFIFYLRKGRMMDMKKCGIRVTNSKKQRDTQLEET
T1 sequence (Q9NZQ7 19-290): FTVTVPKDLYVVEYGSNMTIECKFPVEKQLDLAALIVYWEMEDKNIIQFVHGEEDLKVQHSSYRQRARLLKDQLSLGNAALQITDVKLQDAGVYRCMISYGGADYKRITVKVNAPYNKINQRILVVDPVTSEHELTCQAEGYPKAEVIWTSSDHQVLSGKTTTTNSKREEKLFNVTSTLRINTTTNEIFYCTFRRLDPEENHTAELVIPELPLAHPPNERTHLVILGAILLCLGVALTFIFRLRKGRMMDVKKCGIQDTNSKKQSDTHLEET

B1: PDL01041 (Fc fusion)
scFv: DIQMTQSPASLSASVGETVTITCRASENIYSFLAWYQQKQGKSPQLLVYKAKTLTEGVPSRFSGSGSGTQFSLKINSLQPEDFGSYYCQHHYGSPPETFGGGTKVEIKGGGGSGGGGSGGGGSGGGGSDVKLVESGGGLVKPGGSLKLSCAASGFTFSSYTMSWVRQTPEKRLEWVATISSGGNYTYYPDSVKGRFTISRDNAKNTLYLQLSSLKSEDTAMYYCTRDQAYYGNLFTYWGQGTLVTVSA
notes: also called 2C11LH x human IgG1 WT Fc; not shown: human IgG1 WT Fc and any junction residues between scFv and hinge
B1: the binding result with Human PD-L1 full-length and with Cyno PD-L1 full-length was “binds” in each case.

B2: PDL01049 (10B2LH x human IgG1 WT Fc) (Fc fusion)
chain: DIQMTQTTSSLSASLGDRVTISCRASQDIRNYLNWYQQKPDGTVKLLIYYTSRLQSGVPSRFSGSGSGTDYSLTITTLEQEDFATYFCQQGNMFPYTFGGGTKLEIKGGGGSGGGGSGGGGSGGGGSKVQLQQSGAEVVKPGASVKLSCKASGYNLTEYIIHWVKQRSGQGLEWIGWFYPGSGSIKYNEKFKDKATLTADKSSTTVYMDLSRLTSEDSAVYFCARHGLYYGFPYWGQGTSVTVSS
notes: not shown: human IgG1 WT Fc
Regarding B2, the binding result in the assay with Human PD-L1 full-length and with Cyno PD-L1 full-length was “binds” throughout.

B3: PDL01047 (Fc fusion, not shown: a dimerising Fc or GST; small tags and cut ends)
scFv: DVQITQSPSYLAASPGETITINCRASKSISKYLAWYQEKPGKTNKLLIYSGSTLQSGIPSRFSGSGSGTDFTLTISSLEPEDFAMYYCQQHNEYPFTFGAGTKLEIKGGGGSGGGGSGGGGSGGGGSEVQLQESGPSLVKPSQTLSLTCSVTGDSITSGYWNWIRKFPGNRLEYMGFRSYSGTTYYNPSLKSRISITRDTSKNQYYLQLNSVTTEDTATYYCARFSDFGSSENTMDYWGQGTSVTVSS
notes: also called 7A3-2LH x human IgG1 WT Fc
On to B3, for which the binding result in the assay with Human PD-L1 full-length and in the assay with Cyno PD-L1 full-length was “binds” in each case.

B4: CD4001101 (Fc fusion)
scFv: DIQMTQSPSTLSASVGDRVTITCKSSQSLLFSVNQKNYLAWYQQKPGKAPKLLIYWASTRESGVPARFSGSGSGTEFTLTISSLQPDDFATYYCQHYYSYPWTFGQGTKVEVKGGGGSGGGGSGGGGSGGGGSQVQLVQSGAEVKKPGASVKVSCKASGYTFSTSWIEWIKQAPGQGLEWIGEILPGSGSTNYNENFRNKATFTADTSISTAYMELSRLRSDDTAVYYCARGDDGSYVRWYFDVWGQGTLVTVSS
notes: CDR-grafted 1D5 scFv in scFv-hFc format; not shown: the human Fc (hinge-CH2-CH3) of the scFv-hFc format
In the case of B4, in the assay with human CD40 full-length, the binding result is “binds”.

B5: CD4001102 (Fc fusion)
scFv: DIQMTQSPSSLSASVGDRVTITCKSSQSLLFSVNQKNYLAWYQQKPGKAPKLLIYWASTRESGVPSRFSGSGSGTDFTFTISSLQPEDIATYYCQHYYSYPWTFGGGTKVEIKGGGGSGGGGSGGGGSGGGGSQVQLVQSGAEVKKPGASVKVSCKASGYTFSTSWIEWIKQAPGQGLEWIGEILPGSGSTNYNENFRNKATFTADTSISTAYMELSRLRSDDTAVYYCARGDDGSYVRWYFDVWGQGTLVTVSS
notes: As m82; not shown: the human Fc (hinge-CH2-CH3) of the scFv-hFc format
With B5, the binding result with human CD40 full-length is reported as “binds”.

B6: PDL01042 (Fc fusion)
scFv: DIQMTQTTSSLSASLGDRVTISCSASQGIRNYLNWYQQKPDGTVKLLIYYTSTLHSGVPSRFSGSGSGTDYSLTISNLEPEDIATYYCQQYSKLPWTFGGGTRLEIKGGGGSGGGGSGGGGSGGGGSQIQLQQSGPELVKPGASVKISCKASGYTFTDYYINWVKQKPEQGLEWIGWTFPGSINTKYNEKFKGKATLTVDTSSSTAYMQLNSLTSEDTAVYFCARSPYEFDYWGQGTTLTVSS
notes: also called 3G5LH x human IgG1 WT Fc; not shown: human IgG1 WT Fc (hinge-CH2-CH3) fused C-terminal to the scFv, and its junction
Consider B6, for which the binding result with Human PD-L1 full-length and with Cyno PD-L1 full-length was “binds” in each case.

B7: PDL01036 (6F6HL x human IgG1 WT Fc) (Fc fusion)
chain: QGQMQQSGAELVKPGASVKLSCKTSGFTFSSSYITWLKQKPGQSLEWIAWIYVGTGGISYNQKFTGKAQLTVDTSSSTAYMQFSSLTTEDSAIYYCARHGRYHWYFDVWGAGTTVTVSSGGGGSGGGGSGGGGSGGGGSDIVMTQSHKFMSTSVGDRVTITCKASQDVGTAVAWYQKKPGQSPKLLISWASTRHTGVPDRFTGSGSGTDFTLTISNVQSEDLADYFCQQYSSYPYTFGGGTNLEIK
notes: also called 6F6 clone PDL0136; not shown: human IgG1 WT Fc
Regarding B7, the binding result with Human PD-L1 full-length and with Cyno PD-L1 full-length was “binds” each time.

B8: PDL01051 (antibody, human IgG1, kappa, V domains shown)
VH: EVQLQESGPSLVKPSQTLSLTCSVTGDSITSGYWNWIRKFPGNRLEYMGFRSYSGTTYYNPSLKSRISITRDTSKNQYYLQLNSVTTEDTATYYCARFSDFGSSENTMDYWGQGTSVTVSS
VL: DIVMTQSHKFMSTSVGDRVTITCKASQDVGTAVAWYQKKPGQSPKLLISWASTRHTGVPDRFTGSGSGTDFTLTISNVQSEDLADYFCQQYSSYPYTFGGGTNLEIKR
notes: positive control; also called 7A3 chimeric mAb
Consider B8, for which the binding result in the assay with Human PD-L1 full-length and with Cyno PD-L1 full-length was “binds” throughout.

B9: PDL01050 (antibody, human IgG1, kappa, V domains shown)
VH: EVKFEESGGGLVQPGGSMKLSCFASGFTFSYYWMNWVRQSPEKGLEWIAEIRLKSNNYATHYAESVKGRFTISRDDSKSSVYLEMNNLRAEDTGIYHCTRPPIYYGNYEAYWGQGTLVTVSA
VL: DIQMTQSPSSLSASLGGKVTITCKASQDINKYIAWYQHKPGKGPRLLIHYTSILQPGIPSRFSGSGSGRDYSFSISNLEPEDIATYYCLQYDNLRTFGGGTKLEIKR
notes: positive control; also called 5F11 chimeric mAb
As to B9, the binding result with Human PD-L1 full-length and in the assay with Cyno PD-L1 full-length was “binds” throughout.

B10: PDL01038 (Fc fusion)
scFv: EVQLQESGPSLVKPSQTLSLTCSVTGDSITSGYWNWIRKFPGNRLEYMGFRSYSGTTYYNPSLKSRISITRDTSKNQYYLQLNSVTTEDTATYYCARFSDFGSSENTMDYWGQGTSVTVSSGGGGSGGGGSGGGGSGGGGSDVQITQSPSYLAASPGETITINCRASKSISKYLAWYQEKPGKTNKLLIYSGSTLQSGIPSRFSGSGSGTDFTLTISSLEPEDFAMYYCQQHNEYPFTFGAGTKLEIK
notes: also called 7A3-2HL x human IgG1 WT Fc; not shown: human IgG1 WT Fc (hinge-CH2-CH3) and its junction to the scFv
In the case of B10, the binding result with Human PD-L1 full-length and in the assay with Cyno PD-L1 full-length was “binds” in each case.

B11: PDL01039 (Fc fusion)
scFv: EVQLQESGPSLVKPSQTLSLTCSVTGDSITSGYWNWIRKFPGKKLEYMGYISYTGSTYYNPSLKSRISIARDTSKNQYFLQLNSVTTEDTATYYCTRGENWDGGYFDYWGQGTTLTVSSGGGGSGGGGSGGGGSGGGGSDIVLTQSPASLAVSLGQRATISCRASKSVSKSGYSYLHWYQQKPGQTPKLLIYLASNLESGVPARFSGSGSGTDFTLNIHPVEEEDAATYYCQHSWELPYTFGGGTKLEIK
notes: also called 7H11HL x human IgG1 WT Fc; not shown: human IgG1 WT Fc (hinge-CH2-CH3) and its junction to the scFv
Consider B11, for which the binding result with Human PD-L1 full-length and with Cyno PD-L1 full-length was “binds” throughout.

B12: PDL01048 (Fc fusion, not shown: a dimerising Fc or GST; small tags and cut ends)
scFv: DIVLTQSPASLAVSLGQRATISCRASKSVSKSGYSYLHWYQQKPGQTPKLLIYLASNLESGVPARFSGSGSGTDFTLNIHPVEEEDAATYYCQHSWELPYTFGGGTKLEIKGGGGSGGGGSGGGGSGGGGSEVQLQESGPSLVKPSQTLSLTCSVTGDSITSGYWNWIRKFPGKKLEYMGYISYTGSTYYNPSLKSRISIARDTSKNQYFLQLNSVTTEDTATYYCTRGENWDGGYFDYWGQGTTLTVSS
notes: also called 7H11LH x human IgG1 WT Fc
On to B12, for which the binding result with Human PD-L1 full-length and in the assay with Cyno PD-L1 full-length was “binds” throughout.

B13: PDL01033 (Fc fusion)
scFv: EVQLQESGPSLVKPSQTLSLTCSVTGDSITSGYWNWIRKFPGKKLEYMGYISYTGSTYYNPSLKSRISIARDTSKNQYFLQLNSVTTEDTATYYCTRGENWDGGYFDYWGQGTTLTVSSGGGGSGGGGSGGGGSGGGGSDIQMTQTTSSLSASLGDRVTISCSASQGIRNYLNWYQQKPDGTVKLLIYYTSTLHSGVPSRFSGSGSGTDYSLTISNLEPEDIATYYCQQYSKLPWTFGGGTRLEIK
notes: also called 3G11HL x human IgG1 WT Fc; not shown: human IgG1 WT Fc (hinge-CH2-CH3) and its junction to the scFv
For the molecule B13, the binding result in the assay with Human PD-L1 full-length and in the assay with Cyno PD-L1 full-length was “binds” each time.

B14: CD4001242 (Fc fusion)
chain: EPKSSDKTHTCPPCPAPPAAAPSVFLFPPKPKDTLMISRTPEVTCVVVDVSHEDPEVKFNWYVDGVEVHNAKTKPREEQYNSTYRVVSVLTVLHQDWLNGKEYKCAVSNKALPAPIEKTISKAKGQPREPQVYTLPPSRDELTKNQVSLTCLVKGFYPSDIAVEWESNGQPENNYKTTPPVLDSDGSFFLYSKLTVDKSRWQQGNVFSCSVMHEALHNHYTQKSLSLSPGGGGSPSDIQMTQSPSSVSASVGDRVTITCRASQSLLFSVNQKNYLAWYQQKPGKAPKLLIYWASSLQSGVPSRFSGSGSGTDFTLTISSLQPEDFATYYCQHYYSYPWTFGQGTKVEIKGGGGSGGGGSGGGGSGGGGSQVQLVQSGAEVKKPGSSVKVSCKASGYTFSTSWIEWIRQAPGQGLEWMGSILPGSGSTNYAQKFQGRVTITADTSTSTAYMELSSLRSEDTAVYYCARGDDGSYVRWYFDHWGQGTLVTVSS
notes: also called final humanized version of 1D5
As for B14, in the assay with Cynomolgus CHOK1SV/CD40, the binding result was “binds”.
